According to patent US20190127468A1 (ONCOIMMUNE, published 2019):
Where two headings read alike, the source gives them in different places.

How the values were obtained:
Control IgG1-Fc [1] = target: T1, Control IgG1-Fc (human, UniProt P01857-1 99-330 = IgG part, limits assumed); assay: ELISA: hIgGFc coated on the plate (negative control), biotinylated antibody in solution, HRP-streptavidin, OD450
T1 construct: domain: Fc; also called hIg-Fc; hIgG

[2] = target: T2, mouse CTLA4-Fc fusion protein (mouse, UniProt P09793 36-162, limits assumed); assay: ELISA, plate-coated mCTLA4-Fc, biotinylated antibody
T2 construct: also called mCTLA4-Fc; mCTLA-4; not shown: Fc portion, not described

[3] = target: T3, huCTLA4 (antigen of the Octet experiments) (human, UniProt P16410 37-162, limits assumed); assay: BLI (Octet Red96), antibody on anti-hIgG Fc biosensor, huCTLA4 in solution, 1:1 fit
T3 construct: Construct of the soluble antigen not described; also called the antigen
T3 sequence (P16410 37-162 limits assumed): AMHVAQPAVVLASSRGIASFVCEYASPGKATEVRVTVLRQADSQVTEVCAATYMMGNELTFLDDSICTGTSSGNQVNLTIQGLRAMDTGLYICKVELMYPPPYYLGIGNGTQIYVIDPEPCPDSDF

Control IgG1-Fc [4] = target: T1, Control IgG1-Fc; assay: ELISA: hIgGFc coated on the plate (negative control), biotinylated antibody in solution, HRP-streptavidin, OD450; remark: listed apart in the source
M14 = target: T4, M14; assay: ELISA: CTLA-4Fc protein coated on the plate, biotinylated antibody in solution, HRP-streptavidin, OD450
T4 construct: human CTLA-4Fc mutant; also called CTLA-4Fc M14

M16 = target: T5, M16; assay: as above
T5 construct: human CTLA-4Fc mutant; also called CTLA-4Fc M16
T5 mutant human CTLA-4 extracellular domain fused to IgG1 Fc: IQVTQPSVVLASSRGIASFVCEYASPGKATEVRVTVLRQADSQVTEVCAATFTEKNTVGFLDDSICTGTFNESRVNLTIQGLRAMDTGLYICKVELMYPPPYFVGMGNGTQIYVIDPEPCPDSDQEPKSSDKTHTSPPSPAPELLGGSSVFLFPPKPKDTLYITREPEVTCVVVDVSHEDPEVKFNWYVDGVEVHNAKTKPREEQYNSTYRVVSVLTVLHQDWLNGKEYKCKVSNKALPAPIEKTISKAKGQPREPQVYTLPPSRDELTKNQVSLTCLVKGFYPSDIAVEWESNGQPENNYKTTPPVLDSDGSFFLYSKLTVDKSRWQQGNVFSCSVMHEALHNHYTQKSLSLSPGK

M12 = target: T6, M12; assay: as above
T6 construct: human CTLA-4Fc with clusters of murine Ctla-4 residues; also called CTLA-4Fc M12

[5] = target: T3, huCTLA4 (antigen of the Octet …); assay: BLI (Octet), purified 0.1 L material, replicate 2
[6] = target: T3, huCTLA4 (antigen of the Octet …); assay: BLI (Octet), purified 0.1 L material, replicate 1
[7] = target: T7, mouse CTLA4 in cells of Ctla4 m/m (WT) mice (mouse, UniProt P09793 36-223); assay: flow cytometry, intracellular staining of CTLA4 in spleen cells of Ctla4 m/m mice, gated on CD3+CD4+
T7 construct: whole, on cells; also called murine Ctla-4

[8] = target: T8, human CTLA-4Fc mutant protein M6 (human); assay: ELISA on coated target; binder 100 ng/ml
T8 construct: also called Mutant 6

[9] = target: T2, mouse CTLA4-Fc fusion protein; assay: blocking ELISA: plate B7-2, biotinylated mouse CTLA4-Fc with the antibody, HRP-streptavidin; blocked ligand B7-2
[10] = target: T2, mouse CTLA4-Fc fusion protein; assay: ELISA, binding to soluble mouse CTLA4-Fc (the legend gives no further details of the format)
[11] = target: T9, human CTLA-4Fc mutant protein M8 (human); assay: ELISA on coated target; binder 1000 ng/ml
T9 construct: also called Mutant 8

[12] = target: T8, human CTLA-4Fc mutant protein M6; assay: ELISA on coated target; binder 1000 ng/ml
[13] = target: T8, human CTLA-4Fc mutant protein M6; assay: ELISA on coated target; binder 10 ng/ml

Binder | Kd [3] [nM] | koff [3] [s⁻¹] | kon [3] [M⁻¹ s⁻¹] | further results
Humanized HC1 + LC2 (PP4631) (antibody, IgG1, V domains shown, Humanized L3D10; also called H3106 + L3107; HL12) VH: QVQLQESGPGLVKPSETLSLTCTVSGFSLTSYGLSWIRQPPGKGLEWIGYIWYDGNTNFHPSLKSRVTISKDTSKNQFSLKLSSVTAADTAVYYCAKTEGHYYGSNYGYYALDYWGQGTSVTVSS VL: DIQMTQSPSSLSASVGDRVTITCRASENIYSNLAWYQQKQGKAPKLLLYAATNLQDGVPSRFSGSGSGTDYTLTISSLQPEDFATYFCQHLWGTPYTFGQGTKLEIK |  |  |  | binding result (Control IgG1-Fc [1]): no binding (tested: 0.2 µg/mL); binding result [2]: no binding
Humanized HC1 + LC1 (PP4630) (antibody, IgG1, V domains shown, Humanized L3D10; also called H3106 + L3106) VH: QVQLQESGPGLVKPSETLSLTCTVSGFSLTSYGLSWIRQPPGKGLEWIGYIWYDGNTNFHPSLKSRVTISKDTSKNQFSLKLSSVTAADTAVYYCAKTEGHYYGSNYGYYALDYWGQGTSVTVSS VL: DIQMTQSPSSLSASVGDRVTITCRASENIYSNLAWYQQKPGKAPKLLLYAATNLQSGVPSRFSGSGSGTDFTLTISSLQPEDFATYYCQHLWGTPYTFGGGTKLEIK | 13 | 0.0018 | 130000 | 
Humanized HC2 + LC2 (PP4634) (antibody, IgG1, V domains shown, Humanized L3D10; also called H3107 + L3107) VH: QVQLQESGPGLVKPSETLSLTCTVSGFSLTSYGLSWIRQPPGKGLEWIGYIWYDGNTNFHSSLKSRVTISKDTSKSQVSLKLSSVTAADTAVYYCAKTEGHYYGSNYGYYALDYWGQGTLVTVSS VL: DIQMTQSPSSLSASVGDRVTITCRASENIYSNLAWYQQKQGKAPKLLLYAATNLQDGVPSRFSGSGSGTDYTLTISSLQPEDFATYFCQHLWGTPYTFGQGTKLEIK | 6.8 | 0.0019 | 280000 | 
Humanized HC1 + LC3 (PP4632) (antibody, IgG1, V domains shown, Humanized L3D10; also called H3106 + L3108) VH: QVQLQESGPGLVKPSETLSLTCTVSGFSLTSYGLSWIRQPPGKGLEWIGYIWYDGNTNFHPSLKSRVTISKDTSKNQFSLKLSSVTAADTAVYYCAKTEGHYYGSNYGYYALDYWGQGTSVTVSS VL: DIQMTQSPSSLSASVGDRVTITCRASENIYSNLAWYQQKPGKAPKLLIYAATSLQSGVPSRFSGSGSGTDFTLTISSLQPEDFATYYCQHLWGTPYTFGGGTKVEIK | 12 | 0.0019 | 160000 | 
Humanized HC3 + LC2 (PP4637) (antibody, IgG1, V domains shown, Humanized L3D10; also called H3108 + L3107; HL32) VH: QVQLQESGPGLVKPSETLSLTCTVSGFSLTSYGLSWIRQPPGKGLEWIGYIWYDGNTNFHSPLKSRVTISVDTSKNQFSLKLSSVTAADTAVYYCAKTEGHYYGSNYGYYALDYWGQGTLVTVSS VL: DIQMTQSPSSLSASVGDRVTITCRASENIYSNLAWYQQKQGKAPKLLLYAATNLQDGVPSRFSGSGSGTDYTLTISSLQPEDFATYFCQHLWGTPYTFGQGTKLEIK |  |  |  | binding result (Control IgG1-Fc [4]): no binding (tested: 0.2 µg/mL); binding result (M14): no binding (tested: 0.2 µg/mL); binding result (M16): no binding (tested: 0.2 µg/mL); binding result (M12): no binding (tested: 0.2 µg/mL); binding result [2]: no binding
Humanized HC2 + LC1 (PP4633) (antibody, IgG1, V domains shown, Humanized L3D10; also called H3107 + L3106) VH: QVQLQESGPGLVKPSETLSLTCTVSGFSLTSYGLSWIRQPPGKGLEWIGYIWYDGNTNFHSSLKSRVTISKDTSKSQVSLKLSSVTAADTAVYYCAKTEGHYYGSNYGYYALDYWGQGTLVTVSS VL: DIQMTQSPSSLSASVGDRVTITCRASENIYSNLAWYQQKPGKAPKLLLYAATNLQSGVPSRFSGSGSGTDFTLTISSLQPEDFATYYCQHLWGTPYTFGGGTKLEIK | 7.1 | 0.0014 | 200000 | 
Humanized HC2 + LC3 (PP4635) (antibody, IgG1, V domains shown, Humanized L3D10; also called H3107 + L3108) VH: QVQLQESGPGLVKPSETLSLTCTVSGFSLTSYGLSWIRQPPGKGLEWIGYIWYDGNTNFHSSLKSRVTISKDTSKSQVSLKLSSVTAADTAVYYCAKTEGHYYGSNYGYYALDYWGQGTLVTVSS VL: DIQMTQSPSSLSASVGDRVTITCRASENIYSNLAWYQQKPGKAPKLLIYAATSLQSGVPSRFSGSGSGTDFTLTISSLQPEDFATYYCQHLWGTPYTFGGGTKVEIK | 8.4 | 0.002 | 240000 | 
Humanized HC3 + LC1 (PP4636) (antibody, IgG1, V domains shown, Humanized L3D10; also called H3108 + L3106) VH: QVQLQESGPGLVKPSETLSLTCTVSGFSLTSYGLSWIRQPPGKGLEWIGYIWYDGNTNFHSPLKSRVTISVDTSKNQFSLKLSSVTAADTAVYYCAKTEGHYYGSNYGYYALDYWGQGTLVTVSS VL: DIQMTQSPSSLSASVGDRVTITCRASENIYSNLAWYQQKPGKAPKLLLYAATNLQSGVPSRFSGSGSGTDFTLTISSLQPEDFATYYCQHLWGTPYTFGGGTKLEIK | 8.7 | 0.0022 | 250000 | 
Humanized HC3 + LC3 (PP4638) (antibody, IgG1, V domains shown, Humanized L3D10; also called H3108 + L3108) VH: QVQLQESGPGLVKPSETLSLTCTVSGFSLTSYGLSWIRQPPGKGLEWIGYIWYDGNTNFHSPLKSRVTISVDTSKNQFSLKLSSVTAADTAVYYCAKTEGHYYGSNYGYYALDYWGQGTLVTVSS VL: DIQMTQSPSSLSASVGDRVTITCRASENIYSNLAWYQQKPGKAPKLLIYAATSLQSGVPSRFSGSGSGTDFTLTISSLQPEDFATYYCQHLWGTPYTFGGGTKVEIK | 8.1 | 0.0023 | 290000 | Kd [5]: 11 nM; koff [5]: 0.0022 s⁻¹; kon [5]: 210000 M⁻¹ s⁻¹; Kd [6]: 9.4 nM; koff [6]: 0.0021 s⁻¹; kon [6]: 230000 M⁻¹ s⁻¹
chimeric L3D10 antibody (antibody, V domains shown, Biotinylated in the ELISAs; also called Chimeric Parental; PP4629) VH: QVQLKESGPGLVAPSQSLSITCTVSGFSLTSYGLSWVRQPPGKGLEWLGVIWYDGNTNFHSALISRLTISKDNSKSQVFLELNSLQTDDTATYYCAKTEGHYYGSNYGYYALDYWGQGTSVTVSS VL: DIQMTQSPASLSVSVGETVTITCRASENIYSNLAWYQQKQGKSPQLLVYAATNLADGVPSRFSGSGSGTQYSLKINSLQSEDFGTYFCQHLWGTPYTFGGGTKLEIKR |  |  |  | binding result [7]: no binding
chimeric L3D10 antibody (antibody, V domains shown, biotinylated (sites not given), Mouse L3D10 variable regions on human IgG1 with M252Y, S254T, T256E, S298A, E333A, K334A; Used biotinylated in the ELISA; also called Biotin-L3D10; PP4629) VH: QVQLKESGPGLVAPSQSLSITCTVSGFSLTSYGLSWVRQPPGKGLEWLGVIWYDGNTNFHSALISRLTISKDNSKSQVFLELNSLQTDDTATYYCAKTEGHYYGSNYGYYALDYWGQGTSVTVSS VL: DIQMTQSPASLSVSVGETVTITCRASENIYSNLAWYQQKQGKSPQLLVYAATNLADGVPSRFSGSGSGTQYSLKINSLQSEDFGTYFCQHLWGTPYTFGGGTKLEIKR |  |  |  | OD450 [8]: 3.03 OD
anti-mouse CTLA4 mAb 9D9 (antibody, V domains shown) VH: EAKLQESGPVLVKPGASVKMSCKASGYTFTDYYMNWVKQSHGKSLEWIGVINPYNGDTSYNQKFKGKATLTVDKSSSTAYMELNSLTSEDSAVYYCARYYGSWFAYWGQGTLITVST VL: DIVMTQTTLSLPVSLGDQASISCRSSQSIVHSNGNTYLEWYLQKPGQSPKLLIYKVSNRFSGVPDRFSGSGSGTDFTLKISRVEAEDLGVYYCFQGSHVPYTFGGGTKLEIK |  |  |  | IC50 (read off the curve) [9]: ~1 µg/mL; EC50 (read off the curve) [10]: ~0.4 µg/mL
human B7-1 Fc fusion protein (Fc fusion, UniProt P33681 35-242, looked up, biotinylated (sites not given), Control protein; Used biotinylated in soluble phase; also called Biotin-HB7-1; Biotin-hB7-1; not shown: Fc portion) VIHVTKEVKEVATLSCGHNVSVEELAQTRIYWQKEKKMVLTMMSGDMNIWPEYKNRTIFDITNNLSIVILALRPSDEGTYECVVLKYEKDAFKREHLAEVTLSVKADFPTPSISDFEIPTSNIRRIICSTSGGFPEPHLSWLENGEELNAINTTVSQDPETELYAVSSKLDFNMTTNHSFMCLIKYGHLRVNQTFNWNTTKQEHFPDN |  |  |  | OD450 [11]: 3.63 OD; OD450 [12]: 3.41 OD; OD450 [13]: 0.279 OD
